Measured values reported in patent US20250263461A1.

Assays:
[1] = target: pMHC1 complex: Biotin-HLA-A*02:01-… (SEQ ID NO: 1); test: SPR, pMHC on streptavidin chip, soluble TCR as analyte, 1:1 binding model
[2] = target: NY-ESO-1 and/or LAGE-1a peptide on HLA-A*02:01 (human); test: value quoted for comparison with 1G4LY; no measurement of 1G4 is described in this filing
[3] = target: NY-ESO-1 and/or LAGE-1a peptide on HLA-A*02:01 (human); test: surface plasmon resonance; biotinylated pMHC on streptavidin chip, soluble TCR 0 to 250 nM as analyte; 1:1 binding model; soluble, other
[4] = target: NY-ESO-1 and/or LAGE-1a peptide on HLA-A*02:01 (human); test: surface plasmon resonance; biotinylated pMHC on streptavidin chip, soluble TCR as analyte; 1:1 binding model; soluble, other

A Kd [1] of 0.761 µM, a koff [1] of 0.0303 s⁻¹ and a kon [1] of 39800 M⁻¹ s⁻¹ were found for soluble 1G4LY TCR in this work.

A Kd [2] of 32 µM was found for 1G4 TCR in this work.

A Kd [3] of 0.761 µM, a koff [4] of 0.0303 s⁻¹ and a kon [4] of 39800 M⁻¹ s⁻¹ were found for 1G4LY TCR in this work.
